Data on six molecules can be found in article PMC6436931, “Activation of the Endonuclease that Defines mRNA 3′ Ends Requires Incorporation into an 8-Subunit Core Cleavage and Polyadenylation Factor Complex” (Molecular Cell, 2019).

Series [1] addresses Pcf11;Clp1 (Saccharomyces cerevisiae;Saccharomyces …, UniProt P39081;Q08685 1-626;1-445, |). The series can be described thus: EMSA; EMSA: 50 nM RNA, 0.25-4.0 uM protein, protein diluted in 10 mM HEPES pH 7.9, 150 mM NaCl, 0.5 mM Mg(OAc)2, plus 1x loading dye (orange G, glycerol, EDTA); 30 min on ice; native 6% acrylamide/TBE PAGE. The following applies: protein: recombinant;recombinant; tags: 6H;; copies: 1;1; label: 5'-FAM.

Series [2] has as its target T1, Ysh1;Yjr141w (Saccharomyces cerevisiae;Saccharomyces …, UniProt Q06224;P47172 1-779;1-347, |).
T1 sequence 1: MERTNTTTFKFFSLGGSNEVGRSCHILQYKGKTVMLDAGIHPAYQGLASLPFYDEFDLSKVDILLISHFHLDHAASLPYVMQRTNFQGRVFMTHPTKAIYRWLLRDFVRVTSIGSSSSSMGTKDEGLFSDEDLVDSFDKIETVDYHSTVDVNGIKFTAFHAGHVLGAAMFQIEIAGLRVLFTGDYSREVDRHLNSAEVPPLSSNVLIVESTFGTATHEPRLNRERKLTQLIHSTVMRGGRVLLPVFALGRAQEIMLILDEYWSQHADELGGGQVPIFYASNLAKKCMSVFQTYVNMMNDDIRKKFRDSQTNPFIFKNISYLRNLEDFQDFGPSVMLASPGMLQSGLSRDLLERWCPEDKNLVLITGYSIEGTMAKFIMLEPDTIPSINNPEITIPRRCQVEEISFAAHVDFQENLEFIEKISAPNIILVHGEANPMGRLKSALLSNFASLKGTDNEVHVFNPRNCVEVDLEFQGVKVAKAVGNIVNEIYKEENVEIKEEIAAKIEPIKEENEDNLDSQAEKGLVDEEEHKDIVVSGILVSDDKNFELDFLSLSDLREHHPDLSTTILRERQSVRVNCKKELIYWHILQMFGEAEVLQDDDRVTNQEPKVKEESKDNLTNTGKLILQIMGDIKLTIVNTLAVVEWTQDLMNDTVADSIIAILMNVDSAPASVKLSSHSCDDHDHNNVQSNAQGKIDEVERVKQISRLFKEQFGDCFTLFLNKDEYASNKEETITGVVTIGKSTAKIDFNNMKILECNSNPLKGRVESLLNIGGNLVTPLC
T1 sequence 2: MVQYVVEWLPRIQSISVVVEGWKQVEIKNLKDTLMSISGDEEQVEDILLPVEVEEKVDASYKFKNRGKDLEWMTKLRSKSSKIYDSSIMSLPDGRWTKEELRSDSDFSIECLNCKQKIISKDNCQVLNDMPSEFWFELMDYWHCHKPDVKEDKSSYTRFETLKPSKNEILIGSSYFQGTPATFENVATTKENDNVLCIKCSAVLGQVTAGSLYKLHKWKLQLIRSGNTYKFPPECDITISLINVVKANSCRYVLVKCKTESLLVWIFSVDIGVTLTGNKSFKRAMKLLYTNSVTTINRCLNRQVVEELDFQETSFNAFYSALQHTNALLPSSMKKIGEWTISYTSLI
The description is as above. Conditions: protein: recombinant;recombinant; tags: ;SII-3C (N-terminal) in Ysh1-Yjr141w; untagged in Ysh1-Mpe1-Yjr141w; copies: 1;1; label: 5'-FAM.

In series [3] the target is Rna14;Rna15;Pcf11;Clp1 (Saccharomyces cerevisiae;Saccharomyces …, UniProt P25298;P25299;P39081;Q08685 1-677;1-296;1-626;1-445, |||). Description: EMSA; CF IA; EMSA: 50 nM RNA, 0.25-4.0 uM protein, protein diluted in 10 mM HEPES pH 7.9, 150 mM NaCl, 0.5 mM Mg(OAc)2, plus 1x loading dye (orange G, glycerol, EDTA); 30 min on ice; native 6% acrylamide/TBE PAGE. The following applies: protein: recombinant;recombinant;recombinant;recombinant; tags: 6H;;6H;; chain copies: 2;2;1;1; label: 5'-FAM. (In general: A gel shift assay detects complexes by their altered migration in electrophoresis.)
Rna14;Rna15;Pcf11;Clp1, sequence (P25298 whole entry, chain 1 of 4): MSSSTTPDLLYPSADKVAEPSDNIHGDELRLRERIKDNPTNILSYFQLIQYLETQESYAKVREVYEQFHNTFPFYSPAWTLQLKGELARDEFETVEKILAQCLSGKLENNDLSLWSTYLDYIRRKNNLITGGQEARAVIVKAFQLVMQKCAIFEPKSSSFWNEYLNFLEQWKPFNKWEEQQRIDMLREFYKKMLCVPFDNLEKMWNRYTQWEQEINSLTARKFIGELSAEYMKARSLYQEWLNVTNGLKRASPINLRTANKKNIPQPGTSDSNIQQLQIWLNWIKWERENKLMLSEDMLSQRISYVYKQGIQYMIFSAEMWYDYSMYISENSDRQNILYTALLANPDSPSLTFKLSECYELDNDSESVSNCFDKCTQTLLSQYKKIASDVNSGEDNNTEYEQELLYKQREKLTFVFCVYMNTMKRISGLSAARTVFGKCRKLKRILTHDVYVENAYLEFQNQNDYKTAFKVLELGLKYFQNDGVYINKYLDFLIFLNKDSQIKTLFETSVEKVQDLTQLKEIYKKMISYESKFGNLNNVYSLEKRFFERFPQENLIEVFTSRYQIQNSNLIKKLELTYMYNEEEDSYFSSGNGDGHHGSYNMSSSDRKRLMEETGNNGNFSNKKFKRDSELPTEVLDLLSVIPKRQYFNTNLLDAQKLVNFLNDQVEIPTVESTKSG
Rna14;Rna15;Pcf11;Clp1, sequence (P25299 whole entry, chain 2 of 4): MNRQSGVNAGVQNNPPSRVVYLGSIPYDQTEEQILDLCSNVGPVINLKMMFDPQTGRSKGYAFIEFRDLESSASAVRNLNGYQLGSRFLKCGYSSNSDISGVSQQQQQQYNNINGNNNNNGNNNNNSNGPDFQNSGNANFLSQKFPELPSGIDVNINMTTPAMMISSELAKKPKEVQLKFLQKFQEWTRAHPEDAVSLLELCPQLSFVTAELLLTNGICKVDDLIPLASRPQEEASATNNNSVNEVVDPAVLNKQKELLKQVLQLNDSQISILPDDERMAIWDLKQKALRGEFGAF
Rna14;Rna15;Pcf11;Clp1, sequence (P39081 whole entry, chain 3 of 4): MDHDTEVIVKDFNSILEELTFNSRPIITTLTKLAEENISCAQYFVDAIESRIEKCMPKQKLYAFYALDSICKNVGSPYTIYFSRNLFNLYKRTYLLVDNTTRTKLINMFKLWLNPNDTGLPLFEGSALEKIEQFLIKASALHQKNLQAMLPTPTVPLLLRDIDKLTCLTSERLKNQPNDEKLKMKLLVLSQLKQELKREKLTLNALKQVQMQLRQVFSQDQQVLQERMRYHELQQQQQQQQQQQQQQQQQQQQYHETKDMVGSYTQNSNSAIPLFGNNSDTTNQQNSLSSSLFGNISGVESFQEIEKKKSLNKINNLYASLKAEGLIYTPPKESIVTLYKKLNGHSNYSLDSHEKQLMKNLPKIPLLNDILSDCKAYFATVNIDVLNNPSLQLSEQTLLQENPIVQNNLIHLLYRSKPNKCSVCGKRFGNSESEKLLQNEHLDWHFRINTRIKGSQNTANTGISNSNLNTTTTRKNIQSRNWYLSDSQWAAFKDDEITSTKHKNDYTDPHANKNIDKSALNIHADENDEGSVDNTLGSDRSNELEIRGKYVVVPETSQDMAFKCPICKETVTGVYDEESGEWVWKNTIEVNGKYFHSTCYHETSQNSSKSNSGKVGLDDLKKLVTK
Rna14;Rna15;Pcf11;Clp1, sequence (Q08685 whole entry, chain 4 of 4): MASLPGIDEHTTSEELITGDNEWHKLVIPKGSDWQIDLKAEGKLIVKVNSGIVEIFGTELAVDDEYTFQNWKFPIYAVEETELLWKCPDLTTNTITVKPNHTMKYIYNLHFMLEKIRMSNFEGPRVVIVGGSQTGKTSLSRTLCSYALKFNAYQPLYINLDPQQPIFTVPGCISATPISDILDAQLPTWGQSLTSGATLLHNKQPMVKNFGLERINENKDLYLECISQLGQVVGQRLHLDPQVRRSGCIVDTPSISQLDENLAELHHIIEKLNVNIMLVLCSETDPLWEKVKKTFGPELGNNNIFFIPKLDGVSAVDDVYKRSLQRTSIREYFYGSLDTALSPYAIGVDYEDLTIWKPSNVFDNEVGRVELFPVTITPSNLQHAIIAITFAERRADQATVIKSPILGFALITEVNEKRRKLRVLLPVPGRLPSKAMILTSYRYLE

The target of series [4] is Cft1;Pfs2;Yth1;Fip1;Pap1;Cft2 (Saccharomyces cerevisiae;Saccharomyces …, UniProt Q06632;P42841;Q06102;P45976;P29468;Q12102 1-1357;1-465;1-208;1-327;1-568;1-859, |||||). Description: EMSA; CPFpol + Cft2; EMSA: 50 nM RNA, 0.25-4.0 uM protein, protein diluted in 10 mM HEPES pH 7.9, 150 mM NaCl, 0.5 mM Mg(OAc)2, plus 1x loading dye (orange G, glycerol, EDTA); 30 min on ice; native 6% acrylamide/TBE PAGE. The following applies: protein: recombinant;recombinant;recombinant;recombinant;recombinant;recombinant, tags: ;3C-SII;3C-8H, untagged in CPFpol+Cft2;;SII (Pap1-SII) when alone, untagged in CPFpol and CPFcore;SII (Cft2-SII) when alone, copies: 1;2;1;1;1;1, label: 5'-FAM.

Pcf11;Clp1, sequence (P39081 whole entry, chain 1 of 2): as the sequence (P39081 whole entry, chain 3 of 4) above
Pcf11;Clp1, sequence (Q08685 whole entry, chain 2 of 2): as the sequence (Q08685 whole entry, chain 4 of 4) above

Regarding GGGGGGGGGGGGGGG (ssRNA) [G15], the binding result is recorded as “no binding” in series [1], “no binding” in series [2], “binds” in series [3] and “binds” in series [4].
Take UUUUUUUUUUUUUUU (ssRNA) [U15]: the binding result in series [1] is recorded as “no binding”; in series [2], “no binding”; in series [3], “binds”; in series [4], “no binding”.
Regarding CCCCCCCCCCCCCCC (ssRNA) [C15], the binding result in series [1], in series [2], in series [3] and in series [4] was “no binding” throughout.
In the case of CGUUAUUUAUAUUUCAAAUUUUUCU (ssRNA) [CYC1f EMSA probe], the binding result is recorded as “binds” in series [1], “no binding” in series [2], “binds” in series [3] and “binds” in series [4].
As for AAGAACGUUAUUUAUAUUUCAAAUUUUUCUUUUUU (ssRNA) [CYC1d EMSA probe], the binding result in series [1] was “binds”; in series [2], “no binding”; in series [3] it was “binds”; in series [4] it was “binds”.
As for AAAAAAAAAAAAAAA (ssRNA) [A15], the binding result in series [1] is “no binding”; in series [2], “no binding”; in series [3], “no binding”; in series [4], “binds”.
